According to the supplement of paper PMC10567573:

B1: SNX8 (parent)
chain: VVLKLFLSFSGSDVQNKLKESAQC
B2: ZBED2 (parent)
chain: RAGHHPNQYATCRLCGRQVSRGPG

Variants of: B1
Test: protein stability index of a GFP-peptide fusion (GPS, HEK-293T) (PSI 1-6); higher = more stable
Settings: c terminus: a fixed tail appended
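Note: lentivirally expressed fusions sorted by FACS into six bins by GFP to DsRed ratio, PSI derived from sequencing read proportions per bin multiplied by bin number.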

Protein stability index of substitutions, site by site:
C24: Y 3.1

Variants of: B2
Test: as above
Settings: c terminus: a fixed tail appended

Protein stability index: each site, then its substitutions
P6: S 1.72; D 2.02; F 1.33; Y 1.02; N 1.72; H 2.31; G 2.54; R 1.83; I 1.45
R13: Q 1.04; P 3.18; D 1.96; L 1.58; E 1.9; T 2.4; V 2.39; K 2.1; M 2.24; I 2.09; F 1.36; H 1.59; W 1.98; S 2.79; Y 2.42
G22: E 2.08; A 2.21; T 2.24; V 1.77; M 1.57; F 1.55; H 2.12; L 2.48; P 2.57; I 1.9; W 1.46; S 2.53; D 1.64; K 2.68; R 1.95; N 2.29; C 3.07
Q8: M 1.23; P 2.03; G 1.86; N 1.68; H 1.9; Y 1.13; D 3.31; I 1.57; F 2.11; K 2.78; E 3.47; S 1.05
H5: E 3.69; I 2.27; Y 2.37; Q 2.16; T 1.37; C 1.93; K 2.51; D 3.27; M 2.41; G 1.68; A 2.48; F 1.89; L 1.86; N 2.5
C12: S 3.52; F 1.81; R 3.2; V 2.49; Q 3.12; G 3.16; P 2.98; H 2.49; L 2.27; K 2.4; D 2.88; I 2.64; A 3.19; E 3.66; M 2.28; T 3.19
G3: W 3.31; R 2.09; V 1.64; K 2.66; C 4.01; H 1.25; A 2.29; E 2.06; M 2.52; S 1.57; Q 1.75; L 2.27; D 2.58; T 2.19; I 1.55
H4: K 1.56; V 2.31; R 1.12; T 2.78; L 1.78; N 3.52; Y 1.24; I 3.21; D 2.09; G 2.21; C 1.84; A 2.76; E 2.16
V19: K 3.86; I 1.37; N 1.4; F 2.08; Q 2.48; G 2.53; E 1.7; S 1.65; Y 2.24; H 3.82; M 1.48; T 2.22; P 1.98; C 3.7
T11: Y 3.09; M 3.7; S 1.5; R 2.01; I 2.27; F 3.34; E 2.84; L 1.7; K 2.56; N 1.97
G16: H 1.9; K 1.51; P 2.41; C 1.25; S 2.2; N 2.51; Q 1.81; T 1.41; D 1.78; W 3.77; E 2.46; Y 3.58
Q18: A 2.44; G 2.68; S 1.23; N 2.12; P 2.69; M 2.17; F 2.67; I 2.23; W 1.27; E 1; H 2.59; Y 2.51
A2: P 1.73; Q 1.4; M 1.97; I 2.15; E 2.33; G 2.1; L 2.19; F 2.36; K 1.54; H 1.78; Y 2.04; N 2.11; S 2.04; D 2.08
G24: T 2.17; N 2.42; R 1.8; I 2.11; K 2.03; L 2.07; S 1.56; W 1.97; E 2.35; D 1.7; H 2.15; P 1.71; M 2.17; F 1.17; A 1.24; V 1.61; Y 1.57; C 1.53
C15: I 1.95; G 2.6; D 3.55; H 1.93; K 3.16; V 2.2; Y 1.42; P 3.18; N 2.19; L 1.85; T 3.44; F 1.7; R 2.83; A 1.4; S 2.34
R17: N 1.31; I 1.86; Q 1.3; E 1.93; A 1.69; T 2.26; S 1.79; C 1.91; K 3.01; L 2.64; V 1.49; H 1.29; F 1.96; D 2.96
Y9: N 2.33; P 3.34; H 2.28; I 2.06; A 2.33; S 2.72; L 1.6; F 1.67
S20: E 2.88; H 1.76; N 1.79; V 2.08; P 2.53; K 1.88; I 1.48; D 1.93; R 2.26; T 1.91; F 1.79; M 2.4; C 2.49; W 1.59; Q 2.21; G 1.78; L 2.29
L14: G 2.04; W 2.12; C 2.79; A 1.78; P 1.82; I 1.48; Q 1.15; N 1.25; K 2.66; S 1.57; H 1.75; T 1.49; R 2.39; V 1.07
N7: E 2.52; P 1.56; Y 2.9; F 1.08; A 1.78; S 1.88; R 1.46; L 2.67; M 2.04; K 1.81
A10: F 2.67; W 1.76; K 1.67; M 1.8; S 2.2; I 1.43; T 2.78; Y 1.34; N 1.64; C 2.67; R 1.43; G 2.12; V 1.43; E 1.6; H 2.02; L 2.12; D 1.79
R21: M 1.68; I 2.35; F 1.78; K 1.69; H 2.04; Q 2.25; L 2.03; E 2.45; C 2.54; N 2.88; Y 1.85; S 1.65; T 1.78
P23: E 1.76; V 1.84; R 2.8; Y 1.54; D 2.85; F 1.54; Q 2.11; C 2.96; H 2.54; S 2.05; I 2.27; M 1.77; N 1.88; T 2.2
R1: L 1.78; S 1.86; C 3.55; M 1.79; K 1.68; H 2.13; E 2.53; I 2.13; V 1.33; P 1.04; N 2.85; Q 1.5; T 2.07; D 2.57
